In US20100168031:

T1: L(+)-biotinyl-aminohexanoyl-Glu-Ser-Ile-Asp-Asp-Tyr-Val-Asn-Val-Pro-Glu-Gly-OH (SEQ ID NO:13) (not fully specified)
T1 chain: ESIDDYVNVPEG

T2: L(+)-biotinyl-aminohexanoyl-Glu-Glu-Gly-Ala-Pro-Asp-Tyr-Glu-Asn-Leu-Gln-Glu-Leu-Asn (SEQ ID NO:12)
T2 chain: EEGAPDYENLQELN

T3: L(+)-biotinyl-aminohexanoyl-Cys(H)-Asp-Asp-Tyr-Glu-Phe-Leu-NH2 (SEQ ID NO:25)
T3 chain: CDDYEFL

T4: L(+)-biotinyl-aminohexanoyl-Glu-Asp-Glu-Asp-Asp-Tyr-His-Asn-Pro-Gly-Gly-OH (SEQ ID NO:14) (not fully specified)
T4 chain: EDEDDYHNPGG

B1: recombinant full-length human ZAP-70 (Zeta chain-associated protein of 70 kD) with N-terminal hexa-histidine tag (protein)
chain: MPDPAAHLPFFYGSISRAEAEEHLKLAGMADGLFLLRQCLRSLGGYVLSLVHDVRFHHFPIERQLNGTYAIAGGKAHCGPAELCEFYSRDPDGLPCNLRKPCNRPSGLEPQPGVFDCLRDAMVRDYVRQTWKLEGEALEQAIISQAPQVEKLIATTAHERMPWYHSSLTREEAERKLYSGAQTDGKFLLRPRKEQGTYALSLIYGKTVYHYLISQDKAGKYCIPEGTKFDTLWQLVEYLKLKADGLIYCLKEACPNSSASNASGAAAPTLPAHPSTLTHPQRRIDTLNSDGYTPEPARITSPDKPRPMPMDTSVYESPYSDPEELKDKKLFLKRDNLLIADIELGCGNFGSVRQGVYRMRKKQIDVAIKVLKQGTEKADTEEMMREAQIMHQLDNPYIVRLIGVCQAEALMLVMEMAGGGPLHKFLVGKREEIPVSNVAELLHQVSMGMKYLEEKNFVHRDLAARNVLLVNRHYAKISDFGLSKALGADDSYYTARSAGKWPLKWYAPECINFRKFSSRSDVWSYGVTMWEALSYGQKPYKKMKGPEVMAFIEQGKRMECPPECPPELYALMSDCWIYKWEDRPDFLTVEQRMRACYYSLASKVEGPPGSTQKAEAACA
B2: ZAP-70 activated by Lck (protein)
chain: B1 chain
B3: recombinant full-length human Bruton's tyrosine kinase (Btk) (protein)
chain: MAAVILESIFLKRSQQKKKTSPLNFKKRLFLLTVHKLSYYEYDFERGRRGSKKGSIDVEKITCVETVVPEKNPPPERQIPRRGEESSEMEQISIIERFPYPFQVVYDEGPLYVFSPTEELRKRWIHQLKNVIRYNSDLVQKYHPCFWIDGQYLCCSQTAKNAMGCQILENRNGSLKPGSSHRKTKKPLPPTPEEDQILKKPLPPEPAAAPVSTSELKKVVALYDYMPMNANDLQLRKGDEYFILEESNLPWWRARDKNGQEGYIPSNYVTEAEDSIEMYEWYSKHMTRSQAEQLLKQEGKEGGFIVRDSSKAGKYTVSVFAKSTGDPQGVIRHYVVCSTPQSQYYLAEKHLFSTIPELINYHQHNSAGLISRLKYPVSQQNKNAPSTAGLGYGSWEIDPKDLTFLKELGTGQFGVVKYGKWRGQYDVAIKMIKEGSMSEDEFIEEAKVMMNLSHEKLVQLYGVCTKQRPIFIITEYMANGCLLNYLREMRHRFQTQQLLEMCKDVCEAMEYLESKQFLHRDLAARNCLVNDQGVVKVSDFGLSRYVLDDEYTSSVGSKFPVRWSPPEVLMYSKFSSKSDIWAFGVLMWEIYSLGKMPYERFTNSETAEHIAQGLRLYRPHLASEKVYTIMYSCWHEKADERPTFKILLSNILDVMDEES

Columns and labels:
[1] = target: T1, L(+)-biotinyl-aminohexanoyl-Glu-Ser-Ile- …
[2] = target: T2, L(+)-biotinyl-aminohexanoyl-Glu-Glu-Gly- …
[3] = target: compounds represented by SEQ ID NO:12, SEQ ID NO:13, SEQ ID NO:14 or SEQ ID NO:25
[4] = target: T3, L(+)-biotinyl-aminohexanoyl-Cys(H)-Asp-A …
[5] = target: T4, L(+)-biotinyl-aminohexanoyl-Glu-Asp-Glu- …
[6] = target: compounds of SEQ ID NO:12; SEQ ID NO: 13; or SEQ ID NO: 14

| Protein | phosphorylation of the peptide by the kinase, time resolved fluorescence resonance energy transfer (Eu-anti-phosphotyrosine / SA-APC, 665 nm) [1] | phosphorylation of the peptide by the kinase, time resolved fluorescence resonance energy transfer (Eu-anti-phosphotyrosine / SA-APC, 665 nm) [2] | fluorescence units (TR-FRET phosphorylation assay, 250 nM peptide, 10 nM ZAP-70, 1 µM ATP) [3] | phosphorylation of the peptide by the kinase, time resolved fluorescence resonance energy transfer (Eu-anti-phosphotyrosine / SA-APC, 665 nm) [4] | phosphorylation of the peptide by the kinase, time resolved fluorescence resonance energy transfer (Eu-anti-phosphotyrosine / SA-APC, 665 nm) [5] | phosphorylation of the peptide with 33P-ATP, biotin capture plate, scintillation counting [1] | phosphorylation of the peptide with 33P-ATP, biotin capture plate, scintillation counting [2] | fluorescence units (TR-FRET phosphorylation assay, 250 nM peptide, 10 nM ZAP-70 plus 42 nM Lck, 1 µM ATP) [3] | Km (33P-ATP phosphorylation assay, peptide 0.08-20 µM) [6] | Maximal cpm (33P-ATP phosphorylation assay) [6] | phosphorylation of the peptide with 33P-ATP, biotin capture plate, scintillation counting [5] | phosphorylation of the peptide by the kinase, time resolved fluorescence resonance energy transfer [1] | phosphorylation of the peptide by the kinase, time resolved fluorescence resonance energy transfer [2] | phosphorylation of the peptide by the kinase, time resolved fluorescence resonance energy transfer [5] |
| --- | --- | --- | --- | --- | --- | --- | --- | --- | --- | --- | --- | --- | --- | --- |
| B1 | are phosphorylated by ZAP-70 and by ZAP-70 activated by Lck | are phosphorylated by ZAP-70 and by ZAP-70 activated by Lck | 20,000 to 46,000 fluorescence units | are phosphorylated by ZAP-70 and by ZAP-70 activated by Lck | are phosphorylated by ZAP-70 and by ZAP-70 activated by Lck | – | – | – | – | – | – | – | – | – |
| B2 | are phosphorylated by ZAP-70 and by ZAP-70 activated by Lck | are phosphorylated by ZAP-70 and by ZAP-70 activated by Lck | – | are phosphorylated by ZAP-70 and by ZAP-70 activated by Lck | are phosphorylated by ZAP-70 and by ZAP-70 activated by Lck | are phosphorylated by ZAP-70 | are phosphorylated by ZAP-70 | 20,000 to 46,000 fluorescence units | Km values are in the range of from 0.4 to 2.0 µM | Maximal cpm range from 12,000 to 16,000 | are phosphorylated by ZAP-70 | – | – | – |
| B3 | – | – | – | – | – | – | – | – | – | – | – | are hardly phosphorylated by Lck, Btk or IRK | are hardly phosphorylated by Lck, Btk or IRK | are hardly phosphorylated by Lck, Btk or IRK |
